Legend:
[1] = biological target: HCMV viral Fcγ receptors (vFcγRs) on AD169-infected cells; assay: flow cytometry on AD169-infected fibroblasts, 67 nM antibody
[2] = biological target: HCMV viral Fcγ receptors (vFcγRs) on AD169-infected cells; assay: cell-based or functional assay
[3] = biological target: HCMV glycoprotein B (gB) on HCMV-infected MRC5 fibroblasts (human cytomegalovirus (HCMV), strain AD169) (UniProt P06473); assay: flow cytometry on AD169-infected fibroblasts, 67 nM antibody
[4] = biological target: soluble HCMV gp34 ectodomain with C150S (gp34-M) (human cytomegalovirus (HCMV), strain AD169) (UniProt P16809); assay: ELISA, gB coated at 2 ug/mL, antibody 100 ug/mL, Gp34 diluted from 50 ug/mL, anti-flag-M2-HRP 1/1000 (table on the sheet)
[5] = biological target: HCMV glycoprotein B (gB) on HCMV-infected MRC5 fibroblasts (human cytomegalovirus (HCMV), strain AD169) (UniProt P06473); assay: flow cytometry on AD169-infected fibroblasts, 67 nM antibody with soluble gp34-M (100 nM) and/or t-gp68 (2000 nM)
[6] = biological target: human CD16A ectodomain fused to mouse CD3 zeta, on BW5147 reporter cells (human; mouse) (UniProt P08637); assay: cell-based or functional assay
[7] = biological target: HCMV glycoprotein B (gB) on HCMV-infected MRC5 fibroblasts (human cytomegalovirus (HCMV), strain AD169) (UniProt P06473); assay: flow cytometry, 67 nM antibody on ΔΔΔ-infected fibroblasts (vFcγRs deleted), anti-huFc detection
[8] = biological target: HCMV glycoprotein B (gB) on HCMV-infected MRC5 fibroblasts (human cytomegalovirus (HCMV), strain AD169) (UniProt P06473); assay: flow cytometry on AD169-infected fibroblasts, 67 nM antibody; gB and vFcγRs both capture
[9] = biological target: HCMV glycoprotein B (gB) on HCMV-infected MRC5 fibroblasts (human cytomegalovirus (HCMV), strain AD169) (UniProt P06473); assay: flow cytometry, 67 nM antibody on AD169-infected fibroblasts, anti-huFc detection (vFcγRs also present)
[10] = biological target: HCMV glycoprotein B (gB) on HCMV-infected MRC5 fibroblasts (human cytomegalovirus (HCMV), strain AD169) (UniProt P06473); assay: flow cytometry on AD169-infected MRC5 cells, anti-human Fcγ-AF647
[11] = biological target: soluble truncated HCMV gp68 ectodomain (t-gp68) (human cytomegalovirus (HCMV)) (UniProt F5HC14); assay: ELISA, gB coated at 2 ug/mL, antibody 100 ug/mL, Gp68 diluted from 50 ug/mL, anti-flag-M2-HRP 1/1000 (table on the sheet)
[12] = biological target: soluble truncated HCMV gp68 ectodomain (t-gp68) (human cytomegalovirus (HCMV)) (UniProt F5HC14); assay: SPR (Biacore X100), equilibrium (steady state) KD; t-gp68 captured by anti-strep Fab, hu4D5 Fc variant injected
[13] = biological target: HCMV AD169 gpRL12 ectodomain displayed on ExpiCHO cells (human cytomegalovirus (HCMV), strain AD169) (UniProt P16810); assay: flow cytometry, ExpiCHO cells displaying the ectodomain, goat anti-Fc gamma-AF647, 4PL fit; EC50 unit inferred, x axis IgG (nM)
[14] = biological target: HCMV gp34 ectodomain displayed on ExpiCHO cells (human cytomegalovirus (HCMV)) (UniProt P16809); assay: as above
[15] = biological target: soluble truncated HCMV gp68 ectodomain (t-gp68) (human cytomegalovirus (HCMV)) (UniProt F5HC14); assay: SPR (Biacore X100), kinetic KD; t-gp68 captured by anti-strep Fab on CM5, hu4D5 Fc variant injected; 2:1 fit, first kinetic constants
[16] = biological target: soluble HCMV gp34 ectodomain with C150S (gp34-M) (human cytomegalovirus (HCMV), strain AD169) (UniProt P16809); assay: SPR (Biacore X100), kinetic KD; gp34-M captured by anti-strep Fab on CM5, hu4D5 Fc variant injected; 1:1 fit
[17] = biological target: HCMV Merlin gpRL13 ectodomain displayed on ExpiCHO cells (human cytomegalovirus (HCMV), strain Merlin) (UniProt Q6SWC9); assay: flow cytometry, ExpiCHO cells displaying the ectodomain, hu4D5 Fc variant titrated, goat anti-Fc gamma-AF647
[18] = biological target: human CD16A F158 allotype (human) (UniProt P08637); assay: BLI (Octet RED96e), steady state; hu4D5 variant on FAB2G tips, CD16A F158 5000-156.25 nM, pH 7.4
[19] = biological target: biotinylated FcRn (Acro Biosystems) (UniProt P55899); assay: BLI (Octet RED96e), steady state; biotinylated FcRn on SA tips, hu4D5 Fc variant 1000-31.25 nM, pH 6.0
[20] = biological target: HCMV Merlin gpRL12 ectodomain displayed on ExpiCHO cells (human cytomegalovirus (HCMV), strain Merlin) (UniProt Q6SWD0); assay: flow cytometry, ExpiCHO cells displaying the ectodomain, goat anti-Fc gamma-AF647, 4PL fit; EC50 unit inferred, x axis IgG (nM)
[21] = biological target: HCMV Merlin gpRL13 ectodomain displayed on ExpiCHO cells (human cytomegalovirus (HCMV), strain Merlin) (UniProt Q6SWC9); assay: as above
[22] = biological target: HCMV gp68 ectodomain displayed on ExpiCHO cells (human cytomegalovirus (HCMV)) (UniProt P16739); assay: as above
[23] = biological target: HCMV viral Fcγ receptors (vFcγRs) on AD169-infected cells; assay: flow cytometry, 67 nM antibody on AD169-infected fibroblasts, anti-huFc detection

Sequence of biotinylated FcRn (Acro Biosystems) (P55899 24-297 limits assumed, chain 1 of 2): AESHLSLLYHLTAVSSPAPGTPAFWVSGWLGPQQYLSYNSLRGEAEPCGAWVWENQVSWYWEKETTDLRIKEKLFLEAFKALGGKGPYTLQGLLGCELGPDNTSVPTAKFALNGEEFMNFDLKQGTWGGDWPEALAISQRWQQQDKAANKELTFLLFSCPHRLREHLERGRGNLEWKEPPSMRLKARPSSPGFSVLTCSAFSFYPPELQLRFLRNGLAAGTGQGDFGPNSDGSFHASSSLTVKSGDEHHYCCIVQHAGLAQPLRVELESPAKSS
Sequence of biotinylated FcRn (Acro Biosystems) (chain, as listed by the source limits assumed, chain 2 of 2): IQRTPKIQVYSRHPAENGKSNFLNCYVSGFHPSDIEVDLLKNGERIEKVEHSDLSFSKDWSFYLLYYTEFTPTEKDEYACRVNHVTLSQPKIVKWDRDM
Sequence of human CD16A F158 allotype (human) (P08637 17-208 limits assumed): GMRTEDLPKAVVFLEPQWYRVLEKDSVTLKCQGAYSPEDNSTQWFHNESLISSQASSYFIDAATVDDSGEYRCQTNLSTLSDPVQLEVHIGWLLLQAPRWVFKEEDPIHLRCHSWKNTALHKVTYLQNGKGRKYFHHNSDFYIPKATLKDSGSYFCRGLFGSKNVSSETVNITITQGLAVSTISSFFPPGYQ
Sequence of human CD16A ectodomain fused to mouse CD3 zeta, on BW5147 reporter cells (human; mouse) (P08637 other isoform, or with tags, fused parts or gaps limits assumed): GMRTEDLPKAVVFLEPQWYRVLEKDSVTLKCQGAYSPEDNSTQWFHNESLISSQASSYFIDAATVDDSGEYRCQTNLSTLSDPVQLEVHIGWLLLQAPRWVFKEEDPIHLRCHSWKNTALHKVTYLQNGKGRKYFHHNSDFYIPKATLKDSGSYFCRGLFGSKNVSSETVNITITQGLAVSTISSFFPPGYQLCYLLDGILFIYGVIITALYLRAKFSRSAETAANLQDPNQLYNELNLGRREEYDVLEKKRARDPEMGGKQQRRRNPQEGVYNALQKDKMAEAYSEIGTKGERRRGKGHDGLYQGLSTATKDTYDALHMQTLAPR

With “2B1 control antibody with human IgG1 Fc and an irrelevant Fab” the percent of cells bound [1] was 40%, the internalization by AD169-infected MRC5 (pHrodo, %) [2] was 20% and the internalization in the presence of soluble gp34-M, t-gp68, or both (%) [2] was 0 to 5%.

With “2B1 control antibody with mouse IgG2a Fc and an irrelevant Fab” the percent of cells bound [1] was 5%.

“SM5-1 (anti-gB) with mouse IgG2a Fc (antibody)” showed a percent of cells bound [3] of 60%.

With “SM5-1 (anti-gB) with wild-type human IgG1 Fc (antibody)” the EC50 (read off the curve) [4] was 200 ng/mL, the percent of cells bound [5] was 60% and the NK-92 V158 degranulation (CD107a, % cells), AD169/GFP-infected MRC5, 20 µg/ml [2] was 5%. It also gave an internalization by AD169-infected MRC5 (pHrodo, %) [2] of 37%, an internalization by AD169-infected MRC5 cells (%) [2] of 35% and an internalization by AD169-infected cells (pHrodo, %) [2] of 50%. It also gave an internalization by ΔΔΔ-infected cells (vFcγRs deleted; pHrodo, %) [2] of 7%, an internalization in the presence of soluble gp34-M, t-gp68, or both (%) [2] of 0 to 5% and a CD16A activation, EC50 (mIL-2 of BW-CD16A-ζ reporter cells), AD169-infected MRC5 [6] of 0.0128 ng/mL. It also gave a CD16A activation, EC50 (mIL-2 of BW-CD16A-ζ reporter cells), ΔΔΔ-infected MRC5 [6] of 0.00063 ng/mL, a percent of cells stained [7] of 80% and a percent of cells bound [8] of 75%. The percent of cells stained [9] was 80%, the percent of cells stained [10] was 70% and the EC50 (read off the curve) [11] was 400 ng/mL.

“hu4D5 antibody with G2 Fc (R255Q, H268L, E294K, Q311L, K334E)” was tested, and the Kd [12] was 1800 nM, the EC50 [13] was 81 nM and the EC50 [14] was 410 nM. The Kd [15] was 4800 nM, the Kd [16] was 320 nM and the EC50 (read off the curve) [17] was 30 nM. It also gave a Kd [18] of 1000 nM and a Kd [19] of 50 nM.

“hu4D5 antibody with G5 Fc (R255Q, S337F)” was tested, and the Kd [12] was 850 nM, the EC50 [20] was 15 nM and the EC50 [21] was 230 nM. It also gave an EC50 [13] of 40 nM, an EC50 [14] of 410 nM and a Kd [15] of 2100 nM. It also gave a Kd [16] of 33 nM, a Kd [18] of 1000 nM and a Kd [19] of 90 nM.

Substance “hu4D5 antibody with wild-type human IgG1 Fc” has a Kd [12] of 80 nM, an EC50 [20] of 20 nM and an EC50 [21] of 55 nM. It also gave an EC50 [13] of 74 nM, an EC50 [22] of 12 nM and an EC50 [14] of 40 nM. It also gave a Kd [15] of 69 nM, a Kd [16] of 7.3 nM and a Kd [18] of 1000 nM. The Kd [19] was 60 nM.

With human IgG1 isotype control antibody the internalization by AD169-infected cells (pHrodo, %) [2] was 10% and the percent of cells stained [23] was 35%.

Source: patent US20250127885A1
